Measurements published in patent US5336488A, “Method of treating or preventing mastitis in animals with involuting mammary glands by administering recombinant cytokines” (American Cyanamid Company, priority 1992, dated 1994).

Experiments:
S. aureus [1] = experiment: Therapy of established S. aureus mastitis infections; format: in vivo, S. aureus (in lactating Holstein dairy cattle); conditions: for most efficacious dosing: compared with a single bolus; for dose response of therapeutic efficacy / therapeutic efficacy in infected mammary glands: intramammary infusion
Protocol: The percentage of quarters clearing the infection for greater than 1 milking (RESPONDING), as compared to the percentage of quarters which actually cure their infections (CURE) is a measure of the failure of the host cells to kill the bacteria. The relapse rate is the greatest for r-BoIL-2 (combined relapse rate of 40% for the 10 mg dose X's 3). […] Furthermore, if activation of the host cells is effective, as indicated by the r-BoIL-2 and r-BoGM-CSF, then a combination therapy with r-BoIL-1 or antibiotics is useful.
^1 S. aureus infections are established 2-3 weeks prior to treatment.
Treatments are administered after the AM or PM milking by 1-3 successive
intramammary infusions. A total of 120 mammary glands from 28 different
lactating Holstein dairy cattle are used. Recombinant bovine
interleukin1(IL-1) and interleukin2(IL-2) are obtained from IMMUNEX Corp.
Seattle, WA. Na cephapirin is prepared is PBS; and CefaLak ®
(BristolMeyers) is used according to package# insert instructions.
^2 Cytokines are infused intramammary through the teat canal after th
PM milking at the indicated intervals. The total dose is delivered in a
total volume of 10 ml of sterile PBS. The biological activity of rBoIL-1
and rBoIL-2 is 32,000 Units/μg and 22,000 Units/μg, respectively. A
total dose per infusion 200 mg of Na cephapirin and CefaLak ® is
administered after consecutive PM and AM milkings, according to described
^3 The % RESPONDING = quarters which transiently (> 1 milking) are
free of S. aureus divided by the total number of quarters treated.
^4 The % CURED QUARTERS = # of quarters which clear their infection
and remain free of S. aureus divided by the total number of quarters
treated. Infections are considered to have relapsed if there are > 1 CFUs
from three consecutive AM milkings, or > 20 CFUs for two consecutive afte
therapy at anytime during the 14 day monitoring period.
^5 The % RELAPSE = [1 - {[…]}] ×

milk PMNs [2] = experiment: Inducible superoxide of milk PMNs after PMA stimulation (cytochrome-c reduction); format: in vivo, bovine (Holstein dairy cattle)
Protocol: (§1) FIGS. 2(A-I): Quantity and Quality of Milk PMNs from Mammary Glands Infused with r-BolL-1 or r-BoIL-2
(§2) A total of 12 mammary glands from normal lactating Holstein dairy cattle are infused through the teat canal with either 200 μg of r-BoIL-1; 2 mg of r-BoIL-2; or 1 mg of r-BoGM-CSF. Milk samples are collected and the number of viable somatic cells counted on a Coulter® ZM with a C256 Channelyzer. The data is expressed as the somatic cell count per ml of milk sampled at 16, 40, 64 and 88 hours after infusion for r-BoIL-1 (A); r-BoIL-2 (D); or r-BoGM-CSF(G). The total percentage of phagocytosis by milk PMNs (polymorphonuclear cells) is quantitatively measured by flow cytometry by measuring the percentage of cells ingesting 2μ fluorescent beads for r-BoIL-1 (B); r-BoIL-2(E); or r-BoGM-CSF(H). The total population is first gated by forward angle light scatter, FALS and 90° light scatter to only consider viable polymorphonuclear cells. The induction of superoxide after PMA (520.eta.g)stimulation is also monitored using a whole cell cytochrome-c reduction assay, for r-BoIL-1 (C); r-BoIL-2(F); or r-BoGM-CSF(I). PMNs from untreated milk could not be induced to produce superoxide, while peripheral blood PMNs are inducible in a range of 5-15 .eta.M O2 /Minute/10^7 PMNs.

milk PMNs [3] = experiment: Phagocytosis of fluorescent beads by milk PMNs (flow cytometry) after intramammary infusion; format: in vivo, bovine (Holstein dairy cattle)
Protocol: as §1, §2

milk PMNs [4] = experiment: Quantity of milk PMNs after intramammary infusion; format: in vivo, bovine (Holstein dairy cattle)
Protocol: as §1, §2

[5] = Specific biological activity of recombinant cytokine protein; conditions: for in vitro specific bioactivities: r-BoIL-1 compared with r-BoIL-2; for biological activity: mass of protein
S. aureus [6] = experiment: Prevention of S. aureus mastitis in lactating animals; format: in vivo, S. aureus (in lactating Holstein dairy cattle); conditions: for % CONTROL / % INFECTED: vs Control 1; for protection from subsequent S. aureus challenge: intramammary infusion, Table 1; for most efficacious time of administration for protective effect: relative to S. aureus challenge
Description: This maximal protection correlates with the peak quantitative biological response for this cytokine. […] This also correlates with the peak quantitative biological response of this cytokine and also marks the qualitative increase in phagocytosis and inducible superoxide, FIG. 2D & 2E.
^1 Single intramammary infusion administered after the PM milking. A
total of 100 mammary glands from 22 different lactating Holstein dairy
^2 All glands are free of bacteria on 5 successive samples after the
AM milking prior to the initial infusion.
^3 The total dose in mass of protein is indicated. The biological
^4 Infusions of cytokines were administerd simultaneously with S.
aureus 0, 24 or 48 hours proir to challenge with 30-200 CFUs of S.
^5 Individual quarters are considered cured if the milk samples remai
free of S. aureus. for 14 days after intramammary challenge with of S.
^6 The % Control = (1 - {% Infected After Therapy divided by Infected
in Control Quarters)} × 100.
*Quarters in Control 1 are challenged with 250 CFUs of S. aureus..
Quarters in Control 2 are challenged with 30 CFUs of S. aureus.

[7] = IL-2 multiple, 2 mg, interval 24 hrs
[8] = IL-2 multiple, 10 mg, interval 24 hrs
[9] = IL-1 multiple, 10 μg, interval 24 hrs
[10] = IL-1 multiple, 10 μg, interval 48 hrs
[11] = IL-1 multiple, 200 μg, interval 24 hrs
[12] = IL-1 multiple, 200 μg, interval 48 hrs

B1: recombinant bovine interleukin-2 (protein, UniProt P05016 21-155, looked up)
Interleukin-2: APTSSSTGNTMKEVKSLLLDLQLLLEKVKNPENLKLSRMHTFDFYVPKVNATELKHLKCLLEELKLLEEVLNLAPSKNLNPREIKDSMDNIKRIVLELQGSETRFTCEYDDATVNAVEFLNKWITFCQSIYSTMT
notes: recombinant bovine interleukin-2, obtained from IMMUNEX Corp. Seattle, WA
combined relapse rate (S. aureus [1]; 10 mg dose X's 3): 40%
% CURES (S. aureus [1]; [7]): 9%
% RELAPSE (S. aureus [1]; [7]): 84%
% RESPONSE (S. aureus [1]; [7]): 55%
% CURES (S. aureus [1]; [8]): 25%
% RELAPSE (S. aureus [1]; [8]): 57%
% RESPONSE (S. aureus [1]; [8]): 58%
% RESPONSE (S. aureus [1]; IL-2 multiple, 10 mg, interval 48 hrs): 33%
% CURES (S. aureus [1]; IL-2 single, 2 μg): 0%
% RESPONSE (S. aureus [1]; IL-2 single, 2 μg): 0%
% CURES (S. aureus [1]; IL-2 single, 10 μg): 0%
% RELAPSE (S. aureus [1]; IL-2 single, 10 μg): 100%
% RESPONSE (S. aureus [1]; IL-2 single, 10 μg): 20%
% CURES (S. aureus [1]; IL-2 single, 30 μg): 10%
% RELAPSE (S. aureus [1]; IL-2 single, 30 μg): 0%
% RESPONSE (S. aureus [1]; IL-2 single, 30 μg): 10%
most efficacious dosing (S. aureus [1]): most efficacious if doses are administered over 3 consecutive milkings
dose response of therapeutic efficacy (S. aureus [1]): dose response therapeutic efficacy
therapeutic efficacy in infected mammary glands (S. aureus [1]): effectively treated
inducible superoxide, duration (milk PMNs [2]; 2 mg r-BoIL-2, FIG. 2F): remains throughout the 96 hours of sampling
inducible superoxide (milk PMNs [2]; 2 mg r-BoIL-2, vs resident PMNs, FIG. 2F): significantly increased over the resident PMNs
percent phagocytosis (milk PMNs [3]; by 112 hrs, 2 mg r-BoIL-2, FIG. 2E): still above the pre-treatment level
average number of ingested beads per phagocytic cell (milk PMNs [3]; r-BoIL-2, upon activation): increased upon activation
phagocytosis increase over resident PMNs (milk PMNs [3]; within 40-64 hours, 2 mg r-BoIL-2, FIG. 2E): 2-3 fold
milk PMNs (quantity) (milk PMNs [4]; 2 mg, FIG. 2D): quantitative increase in milk PMNs
milk PMNs (quantity), decline (milk PMNs [4]; after 72 hours, 2 mg, FIG. 2D): diminishes after 72 hours, to control levels
in vitro specific bioactivities [5]: equivalent
biological activity [5]: 22,000 Units/μg
biological activity ([5]; Table 3 footnote 3): 22,000 Units μg
% CONTROL (S. aureus [6]; 1 mg, 0 hrs): 23%
% INFECTED (S. aureus [6]; 1 mg, 0 hrs): 77%
% CONTROL (S. aureus [6]; 1 mg, -24 hrs): 89%
% INFECTED (S. aureus [6]; 1 mg, -24 hrs): 11%
% CONTROL (S. aureus [6]; 1 mg, -48 hrs): 63%
% INFECTED (S. aureus [6]; 1 mg, -48 hrs): 37%
protection from subsequent S. aureus challenge (S. aureus [6]): capable of protecting the host from subsequent S. aureus challenge
most efficacious time of administration for protective effect (S. aureus [6]): most efficacious if administered 48 hours prior to S. aureus challenge

B2: recombinant bovine interleukin-1 (protein, UniProt P09428 114-266, looked up)
Interleukin-1 beta: APVQSIKCKLQDREQKSLVLASPCVLKALHLLSQEMNREVVFCMSFVQGEERDNKIPVALGIKDKNLYLSCVKKGDTPTLQLEEVDPKVYPKRNMEKRFVFYKTEIKNTVEFESVLYPNWYISTSQIEERPVFLGHFRGGQDITDFRMETLSP
notes: recombinant bovine interleukin-1, obtained from IMMUNEX Corp. Seattle, WA
% CURES (S. aureus [1]; [9]): 8%
% RELAPSE (S. aureus [1]; [9]): 90%
% RESPONSE (S. aureus [1]; [9]): 77%
% CURES (S. aureus [1]; [10]): 0%
% RELAPSE (S. aureus [1]; [10]): 100%
% RESPONSE (S. aureus [1]; [10]): 39%
% CURES (S. aureus [1]; [11]): 7%
% RELAPSE (S. aureus [1]; [11]): 91%
% RESPONSE (S. aureus [1]; [11]): 79%
% CURES (S. aureus [1]; [12]): 29%
% RELAPSE (S. aureus [1]; [12]): 54%
% RESPONSE (S. aureus [1]; [12]): 64%
% CURES (S. aureus [1]; IL-1 single, 10 μg): 11%
% RELAPSE (S. aureus [1]; IL-1 single, 10 μg): 0%
% RESPONSE (S. aureus [1]; IL-1 single, 10 μg): 11%
% CURES (S. aureus [1]; IL-1 single, 200 μg): 0%
% RELAPSE (S. aureus [1]; IL-1 single, 200 μg): 100%
% RESPONSE (S. aureus [1]; IL-1 single, 200 μg): 20%
% CURES (S. aureus [1]; IL-1 single, 600 μg): 0%
% RELAPSE (S. aureus [1]; IL-1 single, 600 μg): 100%
% RESPONSE (S. aureus [1]; IL-1 single, 600 μg): 10%
relapse rate (S. aureus [1]; as quoted in text of Example 5): 54%
most efficacious dosing (S. aureus [1]): most efficacious if doses are administered over 3 consecutive milkings
dose response of therapeutic efficacy (S. aureus [1]): dose response therapeutic efficacy
therapeutic efficacy in infected mammary glands (S. aureus [1]): effectively treated
inducible superoxide upon phorbol ester stimulation (milk PMNs [2]; 200 μg r-BoIL-1, vs resident PMNs, FIG. 2C): significantly increased over the resident PMNs
phagocytosis (milk PMNs [3]; 200 μg r-BoIL-1, FIG. 2B): unaffected
increase over the pre-treatment number of PMNs (milk PMNs [4]; 16 hours, 200 μg, FIG. 2A): 150 ×
increase over the pre-treatment number of PMNs (milk PMNs [4]; 40 hours, 200 μg, FIG. 2A): 20 ×
number of PMNs (milk PMNs [4]; by 112 hours, 200 μg, FIG. 2A): back to normal levels by 112 hours
in vitro specific bioactivities [5]: equivalent
biological activity [5]: 32,000 Units/μg
% CONTROL (S. aureus [6]; 1 μg, 0 hrs): 87%
% INFECTED (S. aureus [6]; 1 μg, 0 hrs): 13%
% CONTROL (S. aureus [6]; 1 μg, -24 hrs): 100%
% INFECTED (S. aureus [6]; 1 μg, -24 hrs): 0%
% CONTROL (S. aureus [6]; 1 μg, -48 hrs): 78%
% INFECTED (S. aureus [6]; 1 μg, -48 hrs): 22%
protection from subsequent S. aureus challenge (S. aureus [6]): capable of protecting the host from subsequent S. aureus challenge
most efficacious time of administration for protective effect (S. aureus [6]): most efficacious if administered 24 hours prior to S. aureus challenge
